Test results: the supplement of paper PMC9112550, “Optimization of the antimicrobial peptide Bac7 by deep mutational scanning” (BMC Biology, 2022)

Tested on: Escherichia coli TOP10
Assay: shrunken log2 fold change of peptide-encoding DNA abundance (4.5 h post-induction vs induction); higher = less antimicrobial activity (less host growth inhibition)
Details: time post-induction: 4.5 h; library: site-saturation at positions 5, 18, 19, 20
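Further: peptides expressed intracellularly from a pBAD plasmid library in pooled LB shake-flask culture, induced with 0.3% L-arabinose, DNA abundance read by NGS, three biological replicates, DESeq2 with apeglm shrinkage.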

Sequence | shrunken log2 fold change
RRIRLRPPRLPRPRPRPCVEPRP | -0.124
RRIRLRPPRLPRPRPRPCVNPRP | -0.00681
RRIRLRPPRLPRPRPRPCWTPRP | -0.252
RRIRLRPPRLPRPRPRPCWWPRP | 0.26
RRIRLRPPRLPRPRPRPDCRPRP | 0.0593
RRIRLRPPRLPRPRPRPDDCPRP | 0.014
RRIRLRPPRLPRPRPRPDEIPRP | -0.0542
RRIRLRPPRLPRPRPRPDFGPRP | 0.153
RRIRLRPPRLPRPRPRPDFIPRP | -0.295
RRIRLRPPRLPRPRPRPDGLPRP | -0.115
RRIRLRPPRLPRPRPRPDGWPRP | 0.257
RRIRLRPPRLPRPRPRPDGYPRP | 0.0385
RRIRLRPPRLPRPRPRPDHHPRP | -0.769
RRIRLRPPRLPRPRPRPDIFPRP | -0.282
RRIRLRPPRLPRPRPRPDINPRP | -0.665
RRIRLRPPRLPRPRPRPDIRPRP | -0.15
RRIRLRPPRLPRPRPRPDKQPRP | -6.78e-05
RRIRLRPPRLPRPRPRPDLDPRP | -0.0167
RRIRLRPPRLPRPRPRPDLHPRP | -0.0386
RRIRLRPPRLPRPRPRPDLRPRP | -0.0717
RRIRLRPPRLPRPRPRPDMLPRP | -0.125
RRIRLRPPRLPRPRPRPDMTPRP | -0.0167
RRIRLRPPRLPRPRPRPDMVPRP | -0.175
RRIRLRPPRLPRPRPRPDMWPRP | -0.0873
RRIRLRPPRLPRPRPRPDNLPRP | -0.186

Sequence | shrunken log2 fold change
RRIRLRPPRLPRPRPRPDSFPRP | -0.0169
RRIRLRPPRLPRPRPRPDSKPRP | -0.24
RRIRLRPPRLPRPRPRPDVYPRP | -0.0227
RRIRLRPPRLPRPRPRPDWHPRP | -0.264
RRIRLRPPRLPRPRPRPDWSPRP | -0.124
RRIRLRPPRLPRPRPRPDWVPRP | -0.0945
RRIRLRPPRLPRPRPRPEANPRP | 0.075
RRIRLRPPRLPRPRPRPEAPPRP | 0.462
RRIRLRPPRLPRPRPRPECMPRP | 0.442
RRIRLRPPRLPRPRPRPECPPRP | 0.0712
RRIRLRPPRLPRPRPRPECQPRP | -0.00577
RRIRLRPPRLPRPRPRPEHAPRP | -0.00513
RRIRLRPPRLPRPRPRPEHDPRP | 0.0235
RRIRLRPPRLPRPRPRPEHGPRP | 0.00489
RRIRLRPPRLPRPRPRPEHKPRP | -0.0822
RRIRLRPPRLPRPRPRPEHLPRP | -0.118
RRIRLRPPRLPRPRPRPEIQPRP | -0.0217
RRIRLRPPRLPRPRPRPEKVPRP | -0.0389
RRIRLRPPRLPRPRPRPELMPRP | 0.0527
RRIRLRPPRLPRPRPRPEMCPRP | 0.0636
RRIRLRPPRLPRPRPRPEMEPRP | -0.0177
RRIRLRPPRLPRPRPRPEMKPRP | -0.169
RRIRLRPPRLPRPRPRPENLPRP | 0.0256
RRIRLRPPRLPRPRPRPEQSPRP | -0.0314
RRIRLRPPRLPRPRPRPEQTPRP | -0.000687

Sequence | shrunken log2 fold change
RRIRLRPPRLPRPRPRPEQWPRP | -0.00018
RRIRLRPPRLPRPRPRPESKPRP | 0.286
RRIRLRPPRLPRPRPRPETAPRP | 0.325
RRIRLRPPRLPRPRPRPETQPRP | 0.00473
RRIRLRPPRLPRPRPRPETRPRP | 0.0057
RRIRLRPPRLPRPRPRPEVMPRP | 0.0474
RRIRLRPPRLPRPRPRPEVYPRP | 0.0314
RRIRLRPPRLPRPRPRPEWAPRP | -0.0233
RRIRLRPPRLPRPRPRPEWEPRP | 0.0256
RRIRLRPPRLPRPRPRPEWPPRP | 0.549
RRIRLRPPRLPRPRPRPFCRPRP | 0.0702
RRIRLRPPRLPRPRPRPFFFPRP | 0.343
RRIRLRPPRLPRPRPRPFGMPRP | -0.205
RRIRLRPPRLPRPRPRPFGSPRP | -0.0744
RRIRLRPPRLPRPRPRPFGTPRP | -0.424
RRIRLRPPRLPRPRPRPFHRPRP | -0.246
RRIRLRPPRLPRPRPRPFLGPRP | -0.0654
RRIRLRPPRLPRPRPRPFMHPRP | -0.326
RRIRLRPPRLPRPRPRPFPMPRP | -0.312
RRIRLRPPRLPRPRPRPFPNPRP | 0.203
RRIRLRPPRLPRPRPRPFPWPRP | -0.0836
RRIRLRPPRLPRPRPRPFQFPRP | -0.255
RRIRLRPPRLPRPRPRPFQHPRP | -0.175
RRIRLRPPRLPRPRPRPFQIPRP | -0.109
RRIRLRPPRLPRPRPRPFQRPRP | -0.0382
